In the DeepSol protein solubility set:

test: soluble on expression in E. coli; label from the status in PepcDB or PDB records

Sequence	soluble on expression in E. coli
MAHHHHHHMKKKVELKFLGGLESYLEDKSKNVVTLEIESEKLSFENLIAYIRNHILVDRKDVFADHVLCDGTEFCQVVVDHVERKNYNLNEKAKIKPGIIVLINEYDWEIMHMYEYQIRDGDKLCFLSTLHGG	not soluble
SKGWGWLALLLGVLLGTAWARRSQDLHCGACRALVDELEWEIARVDPKKTIQMGSFRINPDGSQSVVEVPYARSEAHLTELLEEVCDRMKEYGEQIDPSTHRKNYVRVVSRNGESSELDLQGIRIDSDISGTLKFACESIVEEYEDELIEFFSREADNVKDKLCSKRTDLCDHALHRSHDEL	soluble
MGSDKIHHHHHHMIRSTLSSWREYLTPITHKSTFLTTGQITPEEFVQAGDYLCHMFPTWKWNEESSDISYRDFLPKNKQFLIIRKVPCDKRAEQCVEVEGPDVIMKGFAEDGDEDDVLEYIGSETEHVQSTPAGGTKDSSIDDIDELIQDMEIKEEDENDDTEEFNAKGGLAKDMAQERYYDLYIAYSTSYRVPKMYIVGFNSNGSPLSPEQMFEDISADYRTKTATIEKLPFYKNSVLSVSIHPCKHANVMKILLDKVRVVRQRRRKELQEEQELDGVGDWEDLQDDIDDSLRVDQYLIVFLKFITSVTPSIQHDYTMEGW	not soluble
MGSDKIHHHHHHMKTFLVCALEPSANLHLKEVLKAYKKDFGEFELHGIYDESLCKEFDLNSKPLYSSHEFSAMGFIEVLPLIFKAKKAIKELANLSFTQKINGILCIDSPAFNIPFAKALKKAGSKIPRIYYILPQVWAWKKGRIPIIESHFDILASILPFDNQFFNKSTYIGHPLLDEIKEFKNQEDINHTFSKKDDEKTIAFLPGSRRSEIRRLMPIFKELSQKFKGKKILCVPSFNLEKLEVYGDISEFKIESNTPKVLKKADFAFICSGTATLEAALVGTPFVLAYKAKAIDIFIAKLFVKLKHIGLANIFCDFAGKEALNPEFLQDKVNVLNLYEAYNKYDYKAFFAKVDFLKEYLQFGSAKNLAKILNEI	not soluble
MSLYIPCLMCTQHPDSTVKITAGEEVDEAVVAFLAYGCDEVMVDYEGKATPYSQPRDVASKALALGLPLGERFFITPRVPNPRLEDFERSMLSLEAAVLANSYSQRAAGVQAVKWVVLPMTEDVETMAFVYKALDMKARDLAELNAVKRDSSIELIPLVEDAMRQIKIESFIKALFRTAAQSGRILEHMRIFLGISDSAVRHGHMASALAMVKALGQISEINRDGEFKISPIVGMGSPPFRGGLNNPHLAVPEAAQYAGYKTATIQSAVRYDVSYAEYQKVREAILSVYTPRRLHVEEAWITKASELYREAIRPYIGKIAELANAIPSTRDRVSWREYGRVIEGVEWRVPRAIVYTATWYFAGVPPTLLDARFIAWAYKNDLLDDVLRALPATVEEWKFESRFYSRERAEKTLGGEIVKDIDNAFDILGIKPEPDRTYITLLNSADTQPHAIALGRIRGFLGEGHHHHHH	not soluble
MGSDKIHHHHHHMGIRNSKTFTSTDIATYYDVSEDHYMYFWDLNQSHSLHYGYWDASTKTFREALANINRVLAEKASITAGTRVLDAGCGVGGSSIWLAKNKQANVTGITVSKKQAARANTSAAAVNPGGTAVFDVQDYTNTPYHSESFDVVWAIESVCHAANKEDFIKEAYRLLKPGGQLIMADFFIVKDGNADDQRSIDAWGHGWAVPFFEKKDAFQHMLLKAGFNTADMIDSTEHIRRSAKRLYYAFFPGWIISKLYNLVNRRTTEFSKNNVYTAYYQYKTLKKELWKYYIVHAKK	not soluble
MEEARLLVTCPDRPGIVAAVSGFLYAHGANITDLQQHSTDPEGGTFFMRVAFTASHLDLARPALERAFQEVVASRFQMQWRLAYASERKRTAILVSKPAHALLELLWRYRVGELPMELRLVISNHPDHREEVERFGIPYHHVPVEKGRKEEAEERILALLEAEGVELVVLARYMQILSPGFVERFPMRIINIHHSFLPAFAGADPYRQAYERGVKLIGATAHYVTEELDQGPIIEQDVVRVSHRHSVREMKRLGRELERTVLARAVRWHLEDRILVHENRTVVFV	soluble
MSGIGKRELIELYDKLLQFYGKQNWWPVDLEYHKTHGSDPREEVIIGAILTQNTSWKNVEKALENLKREKALNLKAIKEIPTEKLMELIKPAGFYRQKSLYLKEFANKFPSISHLKNVKREDLLKVKGIGKETADAILLYALDRLEFVVDAYTKRLLERLWNIKGSYEEIKRLFEKNLPKDLEIYREFHALIDIHAKEFCKKKPLCEECPLREKCIKSCF	soluble
MGSSRKTANAATNNFPCHGSCPEPSFQIQVIARGVRRRRSPIDQPSMEADVDTDIIDHLKTLHTSEIDARNGYEEALEDAEGKGLTSLFRDMIALHHGNAEELAGMLINAGETADDSGSFMSVVHRTIMSVRSLFDGLDGSVLPGLIDGEKRNLSKYDDALKAIAGIPSISSTLSAQRAKISEKIALMEQQKAAYEAAT	not soluble
MPSYKLTYFDACGFGESARMLFHLGGVPYEDVRLPTINAVPGFQSDEFSALKDKTPFGRFTVLSIDGFDLAQSSAIHRYLARKFGYAGKTPEDEAFADSIVDQFNEYYASLHPYRDAVKTGKTMEEVKQIHDKVYIPAKNLMFKILTRILKENKSGFLVGDGLTWADLVVADHLYTLTNLKELDPEDPIHLTLRKFQEKIFNLTELKDYIETRPVTLV	not soluble
MALLWQLARNAEGDDPTNLESALIGKPVPKFRLESLDNPGQFYQADVLTQGKPVLLNVWATWCPTCRAEHQYLNQLSAQGIRVVGMNYKDDRQKAISWLKELGNPYALSLFDGDGMLGLDLGVYGAPETFLIDGNGIIRYRHAGDLNPRVWEEEIKPLWEKYSKEAAQ	soluble
AIAADRTVPHAYPMSMDYEMCTPPRIYDQNFAEALSPKELLAPVLYHGYYIRPRINKQLERGFSQVESEDDWYRVLLDVCQFTPDEISVRTVDNLLEVSARHAQRMDQHGFVSREFTRTYILPMGVDPLLVQVSLSHDGILCIQAPRKTEDLEPQINQLKIKVEKKESTSK	soluble
MTGRLQNKVIVITGASSGIGEQVAMQVAEQGATPVLMARTEEKLKALADKIKETYNTPCYYYVLDVSEETEVQSVFSKVLQEVGRIDILVNNAGFGIFKTFEDASMDEVKDMFQVNVFGLVACTKAVLPYMVKRNEGHIINIASLAGKIATPKSSAYAATKHAVLGFTNSLRMELSSTNVFVTAINPGPIDTNFFEIADQSGTYVKNMGRYMLKPTYVAEQIVKSMQTKKREVNLPKWMGIGPKLYALFPGLFERVAGKSLSKK	not soluble
MFGRLKQKVKEKTGRAKATTLPAEVDDAMGYFKNLTPRVKDLHKSMTNLEDISKWQKKASFSGTLENYSRLGDKINVKPFMDAVDARMGAEADAVKGVLAICEKYKSFYQNEGKLHADSIANLNRTRLDMDSAADKYANNETEVNKTRLDNSTTEFEVACERMRELANGIKTIESNHSSWQDGLMKEIKVALRK	not soluble
MNRQLLLDVLPAPAPALNNYIAGPNGQALAAAHALTAGRAIYLWGPAGCGRTHLLRGLSARPEAIYIDAARAAQSLRELAEADSTAPMPRLVAVDDVHRMDDARQAGLFALYNRWRESAATGRAFALAVSGDRAPMSLPLREDLRTRLGWDLVFRLDPLSDADKLAALTAQAAERGLQLAPEVINWMLTHHERDIRKLAALLDALDRYSLATGRPITIPLLRAMLADPHSQATLEHHHHHH	soluble
MGHHHHHHSHAESHLQSSLITASQFFEIWLHFDADGSGYLEGKELQNLIQELQQARKKAGLELSPEMKTFVDQYGQRDDGKIGIVELAHVLPTEENFLLLFRCQQLKSCEEFMKTWRKYDTDHSGFIETEELKNFLKDLLEKANKTVDDTKLAEYTDLMLKLFDSNNDGKLELTEMARLLPVQENFLLKFQGIKMCGKEFNKAFELYDQDGNGYIDENELDALLKDLCEKNKQDLDINNITTYKKNIMALSDGGKLYRTDLALILCAGDN	soluble
MTHQKRLSVPKSWKVGRKGNKWISTTRPGPHSQARSLPLGLIIRDVLKLVDNNREGKRILSEGKVLVDGISRKDLRFPVGLFDVITLPLVNEAYRMLQDEKGRLVLYKLNETNVNKLCRINNKTTVKGGKIQLNLNDGTNILGSNDYGTKDSLILSIPDKHVVKHLKFEVGNLAMVIGGQHSGETGKIMEIREVKSSRHNTVMISGETDFETIEDYVIVIGEDKPEIRLGGEISELEHHHHHH	soluble
MHHHHHHSSGVDLGTENLYFQSNAMTIMLTPMQTEEFRSYLTYTTKHYAEEKVKAGTWLPEDAQLLSKQVFTDLLPRGLETPHHHLWSLKLNEKDIVGWLWIHAEPEHPQQEAFIYDFGLYEPYRGKGYAKQALAALDQAARSMGIRKLSLHVFAHNQTARKLYEQTGFQETDVVMSKKL	soluble
MISIHFEKAHDCHQLFQQLQGYLTKYAELGLKGGIEAGGDETLYVNYENQYVNFYDSFQPLLASIFTDYVISTKEEEWLLDIIENMFYFTDEEEKEQIVAIARSILEGDLEDMPSLSMFTNRREYIYQAFSKHIEENMTFYYDPFLTFRLREYGELLIDCVELAIDEYMMEQEYQSMVETLRQFIHSRIPKRGVIYAVYDERFHFYDEHFRLISTDEIVYDLKEELVFEHGLSVEEMVISPLVSMLPETVKVFTNDEEHGVILTLQAIFQERLKVFPLKDSPHQHREELEHHHHHH	soluble
MHHHHHHSSGRENLYFQGMAKERRRAVLELLQRPGNARCADCGAPDPDWASYTLGVFICLSCSGIHRNIPQVSKVKSVRLDAWEEAQVEFMASHGNDAARARFESKVPSFYYRPTPSDCQLLREQWIRAKYERQEFIYPEKQEPYSAGYREGFLWKRGRDNGQFLSRKFVLTEREGALKYFNRNDAKEPKAVMKIEHLNATFQPAKIGHPHGLQVTYLKDNSTRNIFIYHEDGKEIVDWFNALRAARFHYLQVAFPGASDADLVPKLSRNYLKEGYMEKTGPKQTEGFRKRWFTMDDRRLMYFKDPLDAFARGEVFIGSKESGYTVLHGFPPSTQGHHWPHGITIVTPDRKFLFACETESDQREWVAAFQKAVDRPMLPQEYAVEAHFKHKP	soluble
GVTYLLAKRKILYFEAVESKIFVYTEKDVYETTWKLYELEEKFKDSSFFRCSKSMILNIEWIEKIAPGFHGKFEASLFNREKVIISRQYAKILKQKLNLGGKGK	not soluble
MKIGDISIHYLNGGNTKMDGGAMFGVVPKPLWSKQYNANERNQINLPTHPILIQTAQYNLIIDAGIGNGKLSEKQLRNFGVDEESHIIADLANYNLTPKDIDYVLMTHMHFDHAAGLTDQAGHAIFENAIHVVQQDEWHEFIAPNIRSKSTYWDKNKGDYSNKLILFEKHFEPVPGIKMQHSGGHSFGHTIITIESQGDKAVHMGDIFPTTAHKNPLWVTAYDDYPMQSIREKERMIPYFIQQQYWFLFYHDENYFAVKYSDDGENIDAYILRETLVDNNLEHHHHHH	soluble
MAVELNQLRDQIDEVDKQMVELLARRLALVEQVGQVKSRYGLPIYAPDREAAMLASRRAEAESKGVPPQLIEDILRRTMRESYASEKDSGFKCLNPELRSVVIVGGNGQLGRLFGRMFKLSGYQVKVLGSQDWDKADELLSDAGLVVVTVPIHLTLGVIEKLRQLPDDCILCDLTSIKAKPLAAMLQVHKGPVVGLHPMFGPDVPSLAKQVIVYCDGRGNEHYQWLLQQFAIWGASLCQIDADEHDRGMTLIQALRHFTSFAYGLHLTKENPNLAQLLKLSSPIYRLELAMVGRLFGQDPHLYGDIILSSPENIEMIQRFHRCLSDAVELVSAGDKASFVAQFERVSQWFGDYSQQFMHESQNLLKQANDAIHRG	not soluble
MGSDKIHHHHHHMAHPFLRTIFEVVITLYMLHNLYKVLGDDEMDLEEMSSFFNKRVNEYEEHMMNNVGGANQYYIETAKLIPRGKEINILDLGCGTGLELDEIFKINNTVRVTGIDLAENMLRKIKEKHKDKLDRLTLIVGDYFSCDIGEKVFDAALSVETLHHFNHEQKIKLYKKIVRSLKDNGVYIEADYMAPNQDYEDHCFNENKRIRLELGIKDGFYHYDTPCTVENQIKMLYKSGFKSVEKVFKAENTVILLAKK	not soluble
